Three molecules from patent US20190317095A1 (ALLERGAN, published 2019) can be followed below.

For test [1], the target named is SNAP25197, BoNT/A-cleaved SNAP25 (human) (human, UniProt P60880 1-197). As to the kind of experiment: Western blot, SiMa cell lysates +/- BoNT/A. Background: Immunoblotting shows a protein as a band on a membrane.
Test [2] deals with T1, SNAP25180, BoNT/E-cleaved SNAP25 (human) (human, UniProt P60880 1-180).
T1 construct: range 1-180
As to the kind of experiment: Western blot, SiMa cell lysates treated with BoNT/A, BoNT/C, BoNT/E or no toxin.

For test [3], the target named is T2, SNAP25206, full-length SNAP25 (human) (human, UniProt P60880 1-206). The description is as above.
Test [4] addresses T3, SNAP25198, BoNT/C-cleaved SNAP25 (human) (human, UniProt P60880 1-198).
T3 construct: range 1-198
Described as above.

Test [5] addresses SNAP25197, BoNT/A-cleaved SNAP25 (rat) (rat, UniProt P60881 1-197). Briefly: Western blot, summary (rat cortical lysates; SiMa lysates also run).
Test [6] addresses T4, SNAP25206, full-length SNAP25 (rat) (rat, UniProt P60881 1-206). As to the kind of experiment: Western blot, rat embryonic cortical cell lysates +/- BoNT/A.
Test [7] deals with T4, SNAP25206, full-length SNAP25 (rat). As to the kind of experiment: IHC, vehicle-treated rat glabrous skin (FIG. 8F-J).
Test [8] deals with T2, SNAP25206, full-length SNAP25 (human). Briefly: IHC, human back skin biopsies +/- onabotulinumtoxinA (FIG. 9).

T4 sequence (P60881 whole entry): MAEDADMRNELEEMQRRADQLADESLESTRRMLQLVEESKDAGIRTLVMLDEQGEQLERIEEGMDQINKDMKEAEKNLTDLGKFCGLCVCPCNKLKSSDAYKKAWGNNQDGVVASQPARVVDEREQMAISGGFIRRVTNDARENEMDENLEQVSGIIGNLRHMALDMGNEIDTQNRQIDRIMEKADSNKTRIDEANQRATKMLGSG
T2 sequence (P60880 whole entry): as the sequence (P60881 whole entry) above
T3 sequence (P60880 1-198 limits assumed): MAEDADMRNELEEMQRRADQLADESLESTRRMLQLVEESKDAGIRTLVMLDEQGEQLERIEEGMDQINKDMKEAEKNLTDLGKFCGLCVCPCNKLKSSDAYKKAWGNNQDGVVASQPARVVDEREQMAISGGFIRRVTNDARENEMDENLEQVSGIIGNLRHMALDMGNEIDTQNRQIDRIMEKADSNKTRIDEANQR
T1 sequence (P60880 1-180 limits assumed): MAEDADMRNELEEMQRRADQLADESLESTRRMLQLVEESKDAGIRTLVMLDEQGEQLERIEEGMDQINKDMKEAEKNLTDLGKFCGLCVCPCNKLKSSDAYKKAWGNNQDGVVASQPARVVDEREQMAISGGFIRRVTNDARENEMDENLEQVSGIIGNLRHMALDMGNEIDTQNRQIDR
Sequence of SNAP25197, BoNT/A-cleaved SNAP25 (human) (P60880 1-197 limits assumed): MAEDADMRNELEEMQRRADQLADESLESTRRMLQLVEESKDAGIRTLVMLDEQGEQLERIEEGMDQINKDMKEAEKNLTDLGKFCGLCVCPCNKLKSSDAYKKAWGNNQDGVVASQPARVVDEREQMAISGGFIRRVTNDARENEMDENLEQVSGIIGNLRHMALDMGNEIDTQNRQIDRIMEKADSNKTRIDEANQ
Sequence of SNAP25197, BoNT/A-cleaved SNAP25 (rat) (P60881 1-197 limits assumed): as the sequence (P60880 1-197 limits assumed) above

B1: Ab632 anti-SNAP25197 rMAb (Human-3C1A5) (antibody)
heavy: not shown
light: DVVMTQTPLTLSVTIGQPASISCKSSQSLLNTNGKTYLTWLIQRPGQSPQRLIYLVSKLDSGVPDRFSGSGSGTDFTLKISRVEAEDLGVYYCLQSSHFPFTFGSGTKLEIKRTVAAPSVFIFPPSDEQLKSGTASVVCLLNNFYPREAKVQWKVDNALQSGNSQESVTEQDSKDSTYSLSSTLTLSKADYEKHKVYACEVTHQGLSSPVTKSFNRGEC
As for B1, the binding result is recorded as “binds” in test [1]; “no binding” in test [2]; “no binding” in test [3]; “no binding” in test [4]; “binds” in test [5]; “no binding” in test [6].

B2: original non-recombinant 3C1A5 mAb purified from ascites (antibody, V domains shown)
VH: QVKLQESGAELVKPGASVKISCKASGYTFTDHSIHWVKQKPGQGLEWIGYLFPGNGNFEYNEKFKGKATLTADKSSSTVYMYLNSLTSEDSAVYFCKRMGYWGQGTTVTVSS
VL: DVVMTQTPLTLSVTIGQPASISCKSSQSLLNTNGKTYLTWLIQRPGQSPQRLIYLVSKLDSGVPDRFSGSGSGTDFTLKISRVEAEDLGVYYCLQSSHFPFTFGSGTKLEIK
On to B2, for which, in test [7], the binding result is “no binding”.

B3: Ab635 anti-SNAP25197 rMAb (Murine-3C1A5) (antibody)
heavy: QVKLQESGAELVKPGASVKISCKASGYTFTDHSIHWVKQKPGQGLEWIGYLFPGNGNFEYNEKFKGKATLTADKSSSTVYMYLNSLTSEDSAVYFCKRMGYWGQGTTVTVSSAKTTPPSVYPLAPGSAAQTNSMVTLGCLVKGYFPEPVTVTWNSGSLSSGVHTFPAVLESDLYTLSSSVTVPSSPRPSETVTCNVAHPASSTKVDKKIVPRDCGCKPCICTVPEVSSVFIFPPKPKDVLTITLTPKVTCVVVDISKDDPEVQFSWFVDDVEVHTAQTQPREEQFNSTFRSVSELPIMHQDWLNGKEFKCRVNSAAFPAPIEKTISKTKGRPKAPQVYTIPPPKEQMAKDKVSLTCMITDFFPEDITVEWQWNGQPAENYKNTQPIMNTNGSYFVYSKLNVQKSNWEAGNTFTCSVLHEGLHNHHTEKSLSHSPGK
light: not shown
As for B3, the binding result in test [8] and in test [6] was “no binding” throughout.
